The results in this text go back to PMC11119474.

This test addresses HFE-WT-flagM2 (homeostatic iron regulator protein) with β2M-flagM2 (UniProt Q30201).
UniProt Q30201, sequence (Q30201 23-348, chain 1 of 2): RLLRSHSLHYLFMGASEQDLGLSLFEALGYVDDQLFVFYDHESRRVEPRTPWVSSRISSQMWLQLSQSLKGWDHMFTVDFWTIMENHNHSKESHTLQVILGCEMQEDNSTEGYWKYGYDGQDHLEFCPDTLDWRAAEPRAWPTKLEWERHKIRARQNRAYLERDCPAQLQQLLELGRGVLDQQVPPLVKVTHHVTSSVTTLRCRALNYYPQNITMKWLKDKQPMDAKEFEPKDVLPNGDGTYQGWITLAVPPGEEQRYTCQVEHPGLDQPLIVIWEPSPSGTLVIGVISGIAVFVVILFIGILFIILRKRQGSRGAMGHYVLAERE
UniProt Q30201, sequence (chain, as listed by the source, chain 2 of 2): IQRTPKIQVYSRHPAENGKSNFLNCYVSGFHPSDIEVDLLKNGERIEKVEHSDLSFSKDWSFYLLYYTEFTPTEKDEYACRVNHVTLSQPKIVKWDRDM

“PCSK9-WT-V5 (proprotein convertase subtilisin/kexin type 9, wild type) (from UniProt Q8NBP7 31-152; Q8NBP7 153-692) (natural protein)” yielded an HFE level by Western blot in HepG2 PCSK9 KO cells expressing HFE/β2M after 18 h with conditioned medium containing WT PCSK9 (Figure 2A) of 60 % reduction.
